Test results published in patent US9326950B2, “Self-assembling nanoparticles composed of transmembrane peptides and their application for specific intra-tumor delivery of anti-cancer drugs” (The United States of America, as represented by the …, priority 2006, dated 2016).
Where no end group is shown, it is not given here.

How the values were obtained:
[1] = Fluorescence energy transfer between WMC77 and Alexa 546-labeled nanoparticles; type: physicochemical; conditions: WMC77 final concentration 300 nM
[2] = Multi-angle light scattering, molecular weight of peptide aggregates and degree of aggregation; type: physicochemical; conditions: for MW (g/mol): 0.1 M Tris-HCl pH 7.2
Procedure: To determine the influence of hydrophilic tail length on nanoparticle aggregation, the degree of aggregation was determined by multi-angle light scattering for TM peptides with the amino acid sequences of SEQ ID NO: 1; SEQ ID NO: 1-PEG11; SEQ ID NO: 1-PEG27; SEQ ID NO: 1-PEG38; and SEQ ID NO: 1-GGGGG.
The peptides were dissolved in DMSO and diluted with 0.1 M Tris-HCl buffer (pH 7.2) to provide 0.4 mg/ml peptide solutions. This was used for further dilutions. The final concentration of DMSO was either 2.5% or 1.25% (kept constant for all dilutions in the series). The samples were sonicated at maximum intensity for 10 minutes and left at room temperature overnight (about 20 hours before measurements). The following day, the samples were centrifuged at 13200 rpm for 30 minutes.
Light scattering (LS) studies were performed by a DAWN EOS multi-angle detector (Wyatt Technology Corp., Santa Barbara, Calif.) at a laser wavelength of 690 nm. The LS detector was connected with an Agilent 1100 HPLC system (Agilent Technologies, Palo Alto, Calif.). The MALS detector was calibrated with HPLC grade toluene, 99.8% (Aldrich Chemicals, Milwaukee, Wis.), which was filtered through a […] Anotop-25 inorganic membrane filter and then normalized with albumin (bovine) 98% monomer (Sigma Chemicals, St. Louis, Mo.). The data were collected and processed using Astra software (Wyatt Technology Corp.; version 4.90.04).
To determine the molecular weight of the peptide aggregates and the aggregation state, LS micro-batch measurements were performed. In brief, solvent was delivered through the HPLC system, bypassing the column compartment, at a flow rate of 0.05 ml/min. 900 μl samples with different peptide concentrations were injected through the HPLC autosampler. Four peptide concentrations were analyzed (i.e., 0.05 mg/ml, 0.1 mg/ml, 0.2 mg/ml, and 0.4 mg/ml). The concentrations were determined from weight measurements, since strong light scattering made traditional UV-absorbance determination inaccurate. The LS signal was collected for each concentration. Molecular weight was determined for each concentration separately using Astra software with a Debye plot and the Zimm equation. A single slice of collected signal giving the smallest error was chosen for molecular weight calculation at each concentration.

[3] = Transmission electron microscopy of peptide nanoparticles; type: physicochemical; conditions: negative charges replaced by positive charges
Procedure: Peptides were solubilized in DMSO to yield 32 mg/ml solution. DMSO stocks were diluted with phosphate buffered saline (PBS) to produce 0.05-0.5 mg/ml solutions. Two μl of a sample were applied directly on microscopy grids, air-dried, stained with 0.5% (w/v) osmium tetroxide (OsO4), and visualized with a Hitachi H-7000 electron microscope.

[4] = WMC77 fluorescence emission with increasing amounts of nanoparticles; type: physicochemical; conditions: increasing amounts of the nanoparticles
Procedure: FIG. 1 is a graph of fluorescence emission intensity (a.u.) versus concentration (mg/ml) of nanoparticles comprising SEQ ID NO: 1-PEG11 (represented by circles) or SEQ ID NO: 1-PEG38 (represented by open squares).
FIG. 2 is a graph of wavelength maximum (nm) versus concentration (μM) of nanoparticles comprising SEQ ID NO: 1-PEG11 (represented by circles) or SEQ ID NO: 1-PEG38 (represented by open squares).
Various amounts of nanoparticles (SEQ ID NO:1-PEG11 or SEQ ID NO 1-PEG38) were added to solutions of WMC77. The fluorescence emission intensity and shift in emission maxima were measured with the results depicted in FIGS. 1 and 2.

[5] = tested on: MDA-MB-231 breast cancer cells; assay: Survival in mouse model of breast cancer lung metastasis; type: in vivo, nude mice
Procedure: FIG. 3 is a graph of percent survival (%) versus days on treatment for three groups of nude mice intravenously injected with one million MDA-MB-231 breast cancer cells. On the day following the intravenous injection with the breast cancer cells and continuing twice weekly, the mice were intraperitoneally injected with (1) PBS only (Control); (2) 3 mg/kg of nanoparticles of SEQ ID NO: 1-PEG27 dissolved in PBS (X4-4-6, 3 mg/kg); or (3) 12 mg/kg of nanoparticles of SEQ ID NO: 1-PEG27 dissolved in PBS (X4-4-6, 12 mg/kg).
One million MDA-MB-231 breast cancer cells were injected in nude mice intraveneously on Day 0. On Day 1 and continuing twice weekly, mice were intraperitoneally injected with (1) 3 mg/kg of nanoparticles of the TM peptide of SEQ ID NO: 1-PEG27 dissolved in PBS; (2) 12 mg/kg of nanoparticles of the TM peptide of SEQ ID NO: 1-PEG27 dissolved in PBS; or (3) a control (PBS only).

[6] = tested on: MDA-231 breast cancer cells; conditions: mouse, in vivo
Procedure: A CXCR4-TM domain 2-derived pegylated peptide labeled with Alexa546 fluorescent dye was prepared. […] Ten μl of peptide were diluted with 630 μl PBS (to produce 2 mg/ml peptide solution), sonicated for 10 minutes, and used for intratumoral injection.
Nude mice were inoculated in a breast pad with one million MDA-231 breast cancer cells. Six weeks later, when tumor sizes reached about 5 mm in diameter, 0.1 ml of 2 mg/ml solution of the fluorescent nanoparticles in PBS were injected into a breast pad near the tumor.
Whole animals and excised tumors were imaged utilizing the Maestro 420 In-Vivo Spectral Imaging System (Cambridge Resources and Instrumentation, Inc.).

[7] = aggregate MW at 0.05 mg/ml peptide
[8] = aggregate MW at 0.1 mg/ml peptide
[9] = aggregate MW at 0.2 mg/ml peptide
[10] = aggregate MW at 0.4 mg/ml peptide
[11] = 3 mg/kg intraperitoneally twice weekly
[12] = 12 mg/kg intraperitoneally twice weekly

For NCCCN1CCN(CCCNc2ccc3ncn4c5ccccc5c(=O)c2c34)CC1 [WMC77, 5-{3-[4-(aminopropyl)-piperazin-1-yl]-propylamino}-2,10b-diaza-aceanthrylen-6-one, reference compound], which “Fluorescence Intensity (a.u.) of WMC77 solutions” value ([1]; No TM peptide) is on record?
The value was 622 a.u.

Which “N, degree of aggregation (molecules per particle)” value ([2]; 0.05 mg/ml peptide) does the source give for LLFVITLPFWAVDAVANWYFGNDD [SEQ ID NO: 1] here?
Its value is 4090 molecules per particle.

And the “N, degree of aggregation (molecules per particle)” value ([2]; 0.1 mg/ml peptide)?
Its value is 2478 molecules per particle.

And the “N, degree of aggregation (molecules per particle)” value ([2]; 0.2 mg/ml peptide)?
The value was 2494 molecules per particle.

What about the “MW (g/mol)” value [2, 7] of the same compound?
The value was 11,400,000 ± 40,000 g/mol.

What about the “MW (g/mol)” value [2, 8] of the same compound?
The value was 6,906,000 ± 22,000 g/mol.

What about the “MW (g/mol)” value [2, 9] of the same compound?
Its value is 6,952,000 ± 22,000 g/mol.

With LLFVITLPFWAVDAVANWYFGNKK [SEQ ID NO: 6] as the compound, how does the “particle size and uniformity” value [3] read?
The value was “much large particles with highly variable diameters”.

Which “N, degree of aggregation (molecules per particle)” value ([2]; 0.05 mg/ml peptide) does the source give for “SEQ ID NO: 1-GGGGG: TM peptide of SEQ ID NO: 1 with polyglycine tail GGGGG (LLFVITLPFWAVDAVANWYFGNDD; C-terminal GGGGG tail)” here?
Its value is 1614 molecules per particle.

And the “N, degree of aggregation (molecules per particle)” value ([2]; 0.1 mg/ml peptide)?
The value was 664 molecules per particle.

What about the “N, degree of aggregation (molecules per particle)” value ([2]; 0.2 mg/ml peptide) of the same compound?
The value was 282 molecules per particle.

What about the “N, degree of aggregation (molecules per particle)” value ([2]; 0.4 mg/ml peptide) of the same compound?
The value was 55 molecules per particle.

What about the “MW (g/mol)” value [2, 7] of the same compound?
The value was 4,957,000 ± 8,000 g/mol.

What about the “MW (g/mol)” value [2, 8] of the same compound?
The value was 2,041,000 ± 4,000 g/mol.

And the “MW (g/mol)” value [2, 9]?
Its value is 865,600 ± 2,700 g/mol.

And the “MW (g/mol)” value [2, 10]?
The value was 169,700 ± 300 g/mol.

For “SEQ ID NO: 1-PEG11: TM peptide of SEQ ID NO: 1 with hydrophilic oligomer PEG11 added (LLFVITLPFWAVDAVANWYFGNDD; not fully specified; also: PEG11 added)”, which “N, degree of aggregation (molecules per particle)” value ([2]; 0.05 mg/ml peptide) is on record?
The value was 743 molecules per particle.

And the “N, degree of aggregation (molecules per particle)” value ([2]; 0.1 mg/ml peptide)?
The value was 316 molecules per particle.

What about the “N, degree of aggregation (molecules per particle)” value ([2]; 0.2 mg/ml peptide) of the same compound?
Its value is 137 molecules per particle.

And the “N, degree of aggregation (molecules per particle)” value ([2]; 0.4 mg/ml peptide)?
The value was 54 molecules per particle.

And the “MW (g/mol)” value [2, 7]?
Its value is 2,515,000 ± 69,000 g/mol.

What about the “MW (g/mol)” value [2, 8] of the same compound?
Its value is 1,069,000 ± 20,000 g/mol.

And the “MW (g/mol)” value [2, 9]?
The value was 463,800 ± 6,800 g/mol.

What about the “MW (g/mol)” value [2, 10] of the same compound?
The value was 183,200 ± 900 g/mol.

What about the “emission maxima of WMC77” value [4] of the same compound?
The value was “a shift in emission maxima”.

And the “fluorescence emission intensity of WMC77” value [4]?
Its value is “an increase in fluorescence emission intensity”.

With “SEQ ID NO: 1-PEG27: TM peptide of SEQ ID NO: 1 with hydrophilic oligomer PEG27 added; CXCR4 peptide nanoparticles (LLFVITLPFWAVDAVANWYFGNDD; not fully specified; also: PEG27 added)” as the compound, how does the “survival by Day 75” value [5, 11] read?
Its value is “about 40%”.

And the “survival by Day 91” value [5, 11]?
Its value is “no surviving animals”.

And the body weight [5, 12]?
The body weight was “continued to gain weight”.

And the “survival by Day 75” value [5, 12]?
The value was 100%.

And the “survival until the end of the experiment (Day 140)” value [5, 12]?
Its value is “a significant number of the animals administered 12 mg/kg of nanoparticles survived”.

And the “N, degree of aggregation (molecules per particle)” value ([2]; 0.05 mg/ml peptide)?
The value was 286 molecules per particle.

What about the “N, degree of aggregation (molecules per particle)” value ([2]; 0.1 mg/ml peptide) of the same compound?
Its value is 176 molecules per particle.

And the “N, degree of aggregation (molecules per particle)” value ([2]; 0.2 mg/ml peptide)?
The value was 167 molecules per particle.

And the “N, degree of aggregation (molecules per particle)” value ([2]; 0.4 mg/ml peptide)?
Its value is 90 molecules per particle.

And the “MW (g/mol)” value [2, 7]?
The value was 1,171,000 ± 190,000 g/mol.

What about the “MW (g/mol)” value [2, 8] of the same compound?
Its value is 719,400 ± 100,700 g/mol.

And the “MW (g/mol)” value [2, 9]?
Its value is 682,000 ± 105,000 g/mol.

And the “MW (g/mol)” value [2, 10]?
The value was 367,100 ± 38,400 g/mol.

What does the source list for “SEQ ID NO: 1-PEG38: TM peptide of SEQ ID NO: 1 with PEG38, obtained by sequential coupling of PEG11 and PEG27 (LLFVITLPFWAVDAVANWYFGNDD; also: PEG38 added (PEG11 + PEG27))”?
N, degree of aggregation (molecules per particle) ([2]; 0.1 mg/ml peptide): 93 molecules per particle; N, degree of aggregation (molecules per particle) ([2]; 0.2 mg/ml peptide): 19 molecules per particle; N, degree of aggregation (molecules per particle) ([2]; 0.4 mg/ml peptide): 24 molecules per particle; MW (g/mol) [2, 8]: 436,100 ± 20,300 g/mol; MW (g/mol) [2, 9]: 90,950 ± 9,210 g/mol; MW (g/mol) [2, 10]: 110,500 ± 5,600 g/mol; emission maxima of WMC77 [4]: a shift in emission maxima; fluorescence emission intensity of WMC77 [4]: an increase in fluorescence emission intensity

For “SEQ ID NO: 8-PEG27: deletion mutant lacking the five N-terminal amino acid residues of SEQ ID NO: 1, with PEG27 (TLPFWAVDAVANWYFGNDD; not fully specified; also: PEG27 added)”, which “N, degree of aggregation (molecules per particle)” value ([2]; 0.1 mg/ml peptide) is on record?
Its value is 9 molecules per particle.

What about the “N, degree of aggregation (molecules per particle)” value ([2]; 0.2 mg/ml peptide) of the same compound?
The value was 10 molecules per particle.

And the “N, degree of aggregation (molecules per particle)” value ([2]; 0.4 mg/ml peptide)?
The value was 10 molecules per particle.

And the “MW (g/mol)” value [2, 8]?
Its value is 29,550 ± 4,630 g/mol.

And the “MW (g/mol)” value [2, 9]?
Its value is 32,660 ± 6,730 g/mol.

What about the “MW (g/mol)” value [2, 10] of the same compound?
Its value is 34,520 ± 7,850 g/mol.

With “TM peptide-Alexa conjugate: CXCR4-TM domain 2-derived pegylated peptide SEQ ID NO: 1-Peg11-Hcy-Peg27 labeled with Alexa546 fluorescent dye (LLFVITLPFWAVDAVANWYFGNDD; also: Peg11-Hcy-Peg27 attached, Alexa546 label)” as the compound, how does the “penetration of tumor vasculature” value [6] read?
The value was “effectively penetrate tumor vasculature”.

What about the “Fluorescence Intensity (a.u.) of WMC77 solutions” value ([1]; with additive) of the same compound?
The value was 295 a.u.
